Test results reported in IntAct's records for PubMed 19804848.

B1: Syntaxin-binding protein 2 (Homo sapiens), Q15833 (parent)
chain: MAPSGLKAVVGEKILSGVIRSVKKDGEWKVLIMDHPSMRILSSCCKMSDILAEGITIVEDINKRREPIPSLEAIYLLSPTEKSVQALIKDFQGTPTFTYKAAHIFFTDTCPEPLFSELGRSRLAKVVKTLKEIHLAFLPYEAQVFSLDAPHSTYNLYCPFRAEERTRQLEVLAQQIATLCATLQEYPAIRYRKGPEDTAQLAHAVLAKLNAFKADTPSLGEGPEKTRSQLLIMDRAADPVSPLLHELTFQAMAYDLLDIEQDTYRYETTGLSEAREKAVLLDEDDDLWVELRHMHIADVSKKVTELLRTFCESKRLTTDKANIKDLSQILKKMPQYQKELNKYSTHLHLADDCMKHFKGSVEKLCSVEQDLAMGSDAEGEKIKDSMKLIVPVLLDAAVPAYDKIRVLLLYILLRNGVSEENLAKLIQHANVQAHSSLIRNLEQLGGTVTNPGGSGTSSRLEPRERMEPTYQLSRWTPVIKDVMEDAVEDRLDRNLWPFVSDPAPTASSQAAVSARFGHWHKNKAGIEARAGPRLIVYVMGGVAMSEMRAAYEVTRATEGKWEVLIGSSHILTPTRFLDDLKALDKKLEDIALP
partner: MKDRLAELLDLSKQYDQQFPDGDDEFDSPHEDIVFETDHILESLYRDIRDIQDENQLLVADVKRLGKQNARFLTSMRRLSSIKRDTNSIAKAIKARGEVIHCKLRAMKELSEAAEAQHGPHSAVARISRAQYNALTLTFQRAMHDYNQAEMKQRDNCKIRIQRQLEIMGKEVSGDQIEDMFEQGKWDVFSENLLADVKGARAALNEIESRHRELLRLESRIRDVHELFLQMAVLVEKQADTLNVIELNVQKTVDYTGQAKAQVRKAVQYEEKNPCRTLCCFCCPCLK

Variants of: B1
Conditions: with stx11_human STX11, O75558

Effect of a mutation on the interaction, disrupting interaction strength:
P477L
R405W
R405E
R292H
